Publication doi:10.1101/403360

Experiments:
[1] = target: wild type GluN2A C-terminus peptide (…); assay: SPR
[2] = target: wild type GluN2B C-terminus peptide (…); assay: SPR

Kd [1]: 0.31 µM | Kd [2]: 250 µM
Substance: isolated FRMPD2 PDZ2 domain (from UniProt A0A140LI67 934-1027) (domain or fragment)
